Measurements reported in article PMC11929605 (Nature, 2024).

B1: human CaSR (residues 20-894), wild-type construct FLAG-CaSR (receptor, UniProt P41180 20-894, looked up)
chain: YGPDQRAQKKGDIILGGLFPIHFGVAAKDQDLKSRPESVECIRYNFRGFRWLQAMIFAIEEINSSPALLPNLTLGYRIFDTCNTVSKALEATLSFVAQNKIDSLNLDEFCNCSEHIPSTIAVVGATGSGVSTAVANLLGLFYIPQVSYASSSRLLSNKNQFKSFLRTIPNDEHQATAMADIIEYFRWNWVGTIAADDDYGRPGIEKFREEAEERDICIDFSELISQYSDEEEIQHVVEVIQNSTAKVIVVFSSGPDLEPLIKEIVRRNITGKIWLASEAWASSSLIAMPQYFHVVGGTIGFALKAGQIPGFREFLKKVHPRKSVHNGFAKEFWEETFNCHLQEGAKGPLPVDTFLRGHEESGDRFSNSSTAFRPLCTGDENISSVETPYIDYTHLRISYNVYLAVYSIAHALQDIYTCLPGRGLFTNGSCADIKKVEAWQVLKHLRHLNFTNNMGEQVTFDECGDLVGNYSIINWHLSPEDGSIVFKEVGYYNVYAKKGERLFINEEKILWSGFSREVPFSNCSRDCLAGTRKGIIEGEPTCCFECVECPDGEYSDETDASACNKCPDDFWSNENHTSCIAKEIEFLSWTEPFGIALTLFAVLGIFLTAFVLGVFIKFRNTPIVKATNRELSYLLLFSLLCCFSSSLFFIGEPQDWTCRLRQPAFGISFVLCISCILVKTNRVLLVFEAKIPTSFHRKWWGLNLQFLLVFLCTFMQIVICVIWLYTAPPSSYRNQELEDEIIFITCHEGSLMALGFLIGYTCLLAAICFFFAFKSRKLPENFNEAKFITFSMLIFFIVWISFIPAYASTYGKFVSAVEVIAILAASFGLLACIFFNKIYIILFKPSRNTIEEVRCSTAAHAFKVAARATLRRSNV

Assays:
[1] = target: B1; test: cryo-EM structure
cryo-EM structure = target: the molecule itself; test: cryo-EM structure

| binding result [1] | Binder | stoichiometry N (cryo-EM structure) |
| --- | --- | --- |
| binds | WT human Gαi3 (natural protein, lipidated N-terminus) MGCTLSAEDKAAVERSKMIDRNLREDGEKAAKEVKLLLLGAGESGKSTIVKQMKIIHEDGYSEDECKQYKVVVYSNTIQSIIAIIRAMGRLKIDFGEAARADDARQLFVLAGSAEEGVMTPELAGVIKRLWRDGGVQACFSRSREYQLNDSASYYLNDLDRISQSNYIPTQQDVLRTRVKTTGIVETHFTFKDLYFKMFDVGGQRSERKKWIHCFEGVTAIIFCVALSDYDLVLAEDEEMNRMHESMKLFDSICNNKWFTETSIILFLNKKDLFEEKIKRSPLTICYPEYTGSNTYEEAAAYIQCQFEDLNRRKDTKEIYTHFTCATDTKNVQFVFDAVTDVIIKNNLKECGLY | – |
| – | B1 | 2 |
